Assay results taken from PMC4828312 (Journal of neurochemistry, 2016).

B1: Human recombinant tubulin β-3 (TUBB3) (natural protein)
chain: MREIVHIQAGQCGNQIGAKFWEVISDEHGIDPSGNYVGDSDLQLERISVYYNEASSHKYVPRAILVDLEPGTMDSVRSGAFGHLFRPDNFIFGQSGAGNNWAKGHYTEGAELVDSVLDVVRKECENCDCLQGFQLTHSLGGGTGSGMGTLLISKVREEYPDRIMNTFSVVPSPKVSDTVVEPYNATLSIHQLVENTDETYCIDNEALYDICFRTLKLATPTYGDLNHLVSATMSGVTTSLRFPGQLNADLRKLAVNMVPFPRLHFFMPGFAPLTARGSQQYRALTVPELTQQMFDAKNMMAACDPRHGRYLTVATVFRGRMSMKEVDEQMLAIQSKNSSYFVEWIPNNVKVAVCDIPPRGLKMSSTFIGNSTAIQELFKRISEQFTAMFRRKAFLHWYTGEGMDEMEFTEAESNMNDLVSEYQQYQDATAEEEGEMYEDDEEESEAQGPK

Tests used:
[1] = biological target: HIV-1 envelope glycoprotein gp120, strain IIIB (HIV-1 (strain IIIB), UniProt P04578 33-511); assay: SPR
[2] = biological target: B1; assay: SPR

B1
Kd [1]: 7.5 nM

NDMVEQMHEDIISLWDQSLK [Helix-A peptide of gp120]
binding result [2]: binds
